Earlier results in patent US20260217837A1, “FGFR3 BINDING MOLECULES AND METHODS OF USE THEREOF” (Regeneron Pharmaceuticals, Inc., priority 2023, published 2026).
Substitutions are numbered along the chain they refer to. Read-outs that look alike come from different tables or passages of the source.

B1: PRO-001: anti-FGFR3 antibody of WO 2006/048877 A2; SEQ ID NO: 46/29 (antibody, V domains shown)
VH: QVQLQQSGPGLVKPSQTLSLTCAISGDSVSSNSAAWNWIRQSPGRGLEWLGRTYYRSKWYNDYAVSVKSRITINPDTSKNQFSLQLNSVTPEDTAVYYCARSYYPDFDYWGQGTLVTVSS
VL: DIELTQPPSVSVAPGQTARISCSGDALGDKYASWYQQKPGQAPVLVIYDDSDRPSGIPERFSGSNSGNTATLTISGTQAEDEADYYCQSYDGPDLWVFGGGTKLTVLGQ
B2: PRO-002: anti-FGFR3 antibody of WO 2006/048877 A2; SEQ ID NO: 24/25 (antibody, V domains shown)
VH: QVQLVQSGAEVKKPGASVKVSCKASGYTFTSYYMHWVRQAPGQGLEWMGWINPNSGGTNYAQKFQGRVTMTRDTSISTAYMELSSLRSEDTAVYYCARDFLGYEFDYWGQGTLVTVSS
VL: B1 VL with G92Y, P93S, D94A, L95D, W96Y
B3: MS-Pro-54: anti-FGFR3 Ig-like domain 3 antibody of WO 2002/102972 A2; SEQ ID NO: 42/43 (antibody, V domains shown)
VH: QVQLVQSGAEVKKPGASVKVSCKASGYTFTSYYMHWVRQAPGQGLEWMGWINPNSGGTNYAQKFQGRVTMTRDTSISTAYMELSSLRSEDTAVYYCARNMAYTNYQYVNMPHFDYWGQGTLVTVSS
VL: DIELTQPPSVSVAPGQTARISCSGDALGDKYASWYQQKPGQAPVLVIYDDSDRPSGIPERFSGSNSGNTATLTISGTQAEDEADYCQSYDYFKLVFGGGTKLTVLGQ
B4: PRO-012: anti-FGFR3 antibody of WO 2006/048877 A2; SEQ ID NO: 47/27 (antibody, V domains shown)
VH: QVQLKESGPALVKPTQTLTLTCTFSGFSLSTSGVGVGWIRQPPGKALEWLALIDWDDDKYYSTSLKTRLTISKDTSKNQVVLTMTNMDPVDTATYYCARYHSWYEMGYYGSTVGYMFDYWGQGTLVTVSS
VL: DIELTQPPSVSVAPGQTARISCSGDALGDKYASWYQQKPGQAPVLVIYDDSDRPSGIPERFSGSNSGNTATLTISGTQAEDEADYYCQSYDFDFAVFGGGTKLTVLGQ
B5: PRO-026: anti-FGFR3 IIIc antibody of WO 2006/048877 A2; SEQ ID NO: 36/37 (antibody, V domains shown)
VH: QVQLVQSGAEVKKPGASVKVSCKASGYTFTSYYMHWVRQAPGQGLEWMGWINPNSGGTNYAQKFQGRVTMTRDTSISTAYMELSSLRSEDTAVYYCARGYWYAYFTYINYGYFDNWGQGTLVTVSS
VL: DIALTQPASVSGSPGQSITISCTGTSSDVGGYNYVSWYQQHPGKAPKLMIYDVSNRPSGVSNRFSGSKSGNTASLTISGLQAEDEADYYCQSYDNNSDWFGGGTKLTVLGQ
B6: MS-Pro-55: anti-FGFR3 Ig-like domain 3 antibody of WO 2002/102972 A2; SEQ ID NO: 44/45 (antibody, V domains shown)
VH: QVQLVQSGAEVKKPGASVKVSCKASGYTFTSYYMHWVRQAPGQGLEWMGWINPNSGGTNYAQKFQGRVTMTRDTSISTAYMELSSLRSEDTAVYYCARSMNSTMYWYLRRVLFDHWGQGTLVTVSS
VL: DIALTQPASVSGSPGQSITISCTGTSSDVGGYNYVSWYQQHPGKAPKLMIYDVSNRPSGVSNRFSGSKSGNTASLTISGLQAEDEADYYCQSYDMYNYIVFGGGTKLTVLGQ

Tested on: FGFR3
[1] = Table T-1, exemplary FGFR3 parental antibodies of cited publications
[2] = Exemplary FGFR3 D3 binding sequences, antibodies of cited PCT publications

| Molecule | Activity [1] | Activity [2] |
| --- | --- | --- |
| B1 | Antagonistic | – |
| B2 | Antagonistic | – |
| B3 | Antagonistic | Antagonistic |
| B4 | Antagonistic | – |
| B5 | Antagonistic | Antagonistic |
| B6 | Antagonistic | Antagonistic |
